Experimental data: US20130177572A1 (X BODY, published 2013)

T1: mouse PDGFR-hIgG1-Fc chimeric fusion protein (mouse; human, UniProt P05622 32-530, limits assumed)
T1 construct: also called mouse PDGFRβ; mouse PDFGR; not shown: human IgG1 Fc
T1 sequence (looked up): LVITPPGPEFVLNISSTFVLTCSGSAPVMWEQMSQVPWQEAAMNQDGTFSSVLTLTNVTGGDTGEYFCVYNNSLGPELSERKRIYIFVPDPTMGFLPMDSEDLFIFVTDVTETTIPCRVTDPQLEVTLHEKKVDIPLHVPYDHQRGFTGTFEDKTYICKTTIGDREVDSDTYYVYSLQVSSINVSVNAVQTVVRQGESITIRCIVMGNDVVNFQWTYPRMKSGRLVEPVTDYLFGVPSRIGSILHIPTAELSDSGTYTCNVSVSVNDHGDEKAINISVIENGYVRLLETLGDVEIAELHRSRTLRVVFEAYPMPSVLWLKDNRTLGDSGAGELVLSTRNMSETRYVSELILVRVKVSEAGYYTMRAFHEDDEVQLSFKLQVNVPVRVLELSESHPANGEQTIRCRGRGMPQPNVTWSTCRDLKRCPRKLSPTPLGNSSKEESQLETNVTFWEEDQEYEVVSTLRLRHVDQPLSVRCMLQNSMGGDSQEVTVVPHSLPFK

T2: mouse PDGFRβ (mouse, UniProt P05622 32-530, limits assumed)
T2 sequence (looked up): T1 sequence (looked up)

B1: XB2708 VH domain (other)
VH: QVQLVQSGGGVVQPGGSLRLSCAASGFTSRSYGMHWVRQAPGKGLEWVAFILFDGNNKYYADSVKGRFTISSDNSKNTLYLQMNSLRAEDTAVYYCATHGGDRSYWGQGTLVTVSS
notes: Isolated (unpaired) human VH domain, framework-shuffled derivative of XB1511; produced in E. coli for SPR
B2: XB1511 VH domain (other)
VH: QVQLVQSGAEVKKPGSSVKVSCKASGGTFSSYAISWVRQAPGQGLEWMGGIIPIFGTANYAQKFQGRVTITADESTSTAYMELSSLRSEDTAVYYCAIHGGDRSYWGQGTLVTVSS
notes: Isolated (unpaired) human VH domain; also called clone A4; A4 XB1511
B3: XB2202 VH domain (other)
VH: QVQLVQSGAEVKKPGSSVRVSCKASGGTFSRHAISWVRQAPGQGLEWIGGILPILKTPNYAQRFQGRVTINADESTSTVYMEMSSLRSEDTAVYYCATHGGDRSYWGQGTLVTVSS
notes: as for B1
B4: C2 (scFv, V domains shown)
VH: B3 VH
VL: DIQMTQSPSSLSASVGDRVAIACRPSQDIGTDLGWYQQKPGKAPKLLIFDSSTLQSGVPSRFSGSLSGTDFILTITNLQPEDFATYYCLQDYSFPYTFGQGTKLQIKR
notes: also called scFv XB2202-C2; XB2202/C2 scFv
B5: A5 (scFv, V domains shown)
VH: B3 VH
VL: SYELTQPPSASASLGASVTLTCTVSSGYRSYEVDWFQQRPGKGPRFVMRVGTGGIVGSRGDGIPDRFSVWGSGLNRYLTIEDIQEEDESDYYCGADHGSGSNLVYVFGTGTKVTVL
notes: also called XB2202/A5 scFv
B6: XB2202/A4 IgG1 (antibody)
heavy: not shown
light: DVVMTQSPSSLSASVGDRVTITCQASQDISNWLNWYQQKPGKAPKLLIYEASNLETGVPSRFSGSGSGTDFTFTISSLQPEDIATYYCQQYNNVLRTFGQGTKVEIKRTVAAPSVFIFPPSDEQLKSGTKVEIKRTVAAPSVFIFPPSDEQLKSGTASVVCLLNNFYPREAKVQWKVDNALQSGNSQESVTEQDSKDSTYSLSSTLTLSKADYEKHKVYACEVTHQGLSSPVTKSFNRGEC
notes: Full-length heterotetrameric IgG1 expressed in 293T cells; also called XB2202/A4 IgG1 antibody

Experiments:
[1] = target: T3, human PDGFR-hIgG1-Fc chimeric fusion protein (human, UniProt P09619 33-530); assay: SPR (Biacore T100), PDGFR-Fc captured by anti-hIgG1 Fc, VH injected, 1:1 fit
T3 construct: For the IgG assay it was captured by an anti-6His antibody, which points to a His tag; also called recombinant human PDGFR-hIgG1-Fc chimeric fusion protein (R&D, #385-PR-100/CF); human PDGFRβ; not shown: human IgG1 Fc
Description: (§1) The R4 framework shuffled human and mouse PDGFRβ enriched VH domain pool selected in Example 2 was cloned into E. coli expression vectors, produced and purified. The binding kinetics of the VH domains to human and mouse PDFGR was determined using surface plasmon resonance on a Biacore T100. Briefly, human and mouse PDGFR-hIgG1-Fc chimeric fusion protein were separately immobilized using a Series CM5 sensorchip (CM5) coupled to anti-hIgG1 Fc monoclonal antibody. For each cycle, the PDGFR fusion protein was first captured, followed by the injection of VH for 115 seconds at a flow rate of 100 uL/min (association). Immediately following the association phase is a dissociation phase of 600 seconds. The surface was regenerated at each cycle with a single injection of 3M MgCl2 (10 uL/min, 60 seconds). Multiple concentrations of VH domain were injected (0.55 nM-40 nM) and the resulting sensorgram were analyzed with T100 Evaluation software. The binding kinetics was determined using 1:1 binding curve fitting.

[2] = target: T3, human PDGFR-hIgG1-Fc chimeric fusion …; assay: SPR (Biacore T100), human PDGFR-hIgG1-Fc captured by anti-hIgG1 Fc, 1:1 fit; the text prints it rounded as 93 pM
Description: as §1

[3] = target: T3, human PDGFR-hIgG1-Fc chimeric fusion …; assay: SPR (Biacore T100), human PDGFR-hIgG1-Fc captured by anti-hIgG1 Fc, 1:1 fit
Description: as §1

[4] = target: T1, mouse PDGFR-hIgG1-Fc chimeric fusion …; assay: SPR (Biacore T100), mouse PDGFR-hIgG1-Fc captured by anti-hIgG1 Fc, 1:1 fit
Description: as §1

[5] = target: T3, human PDGFR-hIgG1-Fc chimeric fusion …; assay: SPR (Biacore T100), PDGFR-hIgG1-Fc captured by anti-hIgG1 Fc, VH injected; series 0 to 120 in the legend box, unit inferred
human PDGFRβ [6] = target: T4, human PDGFRβ (human, UniProt P09619 33-530, limits assumed); assay: solution equilibrium binding: 35S-Met labelled in vitro translated protein, human PDGFRβ titrated, capture on protein A beads, scintillation counts
T4 construct: also called hPDGFRβ; recombinant human PDGFRβ
Description: (§2) The affinity of several scFvs was determined by solution based equilibrium binding assay. Specifically, 120 pmol of scFv RNA was translated into free protein with ³⁵S Met incorporated. The translated reaction mixture was 3-fold diluted in binding buffer containing 1×PBS with 0.025% triton, 1 mg/mL BSA and 0.1 mg/mL sssDNA. Human PDGFRβ was diluted in the same binding buffer to final concentrations from 100 nM to 0 nM. The diluted scFv mixture was incubated with hPDGFRβ in final volume of 100 ul on Kingfisher plates (Thermofisher Scientific, 97002084). Following incubation, 25 ul of protein A magnetic beads (Invitrogen) were used to capture the PDGFRβ from solution. The captured PDGFRβ was washed and eluted in kingfisher Reader (Thermofisher Scientific). The amount of scFv (labeled with ³⁵S Met) bound to the magnetic bead-immobilized hPDGFRβ was counted using a scintillation counter and the Kd was calculated with Graph Pad Prism 5.

mouse PDGFRβ = target: T2, mouse PDGFRβ; assay: 35S-Met labelled in vitro translated VH, binding to target
[7] = target: T3, human PDGFR-hIgG1-Fc chimeric fusion …; assay: SPR competition (Biacore T100): captured PDGFR-Fc, VH 0.46-60 nM, then 10 nM PDGFBB
Description: Briefly, human PDGFR-hIgG1-Fc chimeric fusion protein was immobilized using a Series CM5 sensorchip coupled with anti-hIgG1 Fc monoclonal antibody. […] For each successive cycle, the PDGFR fusion protein was first captured then VH domain was then injected for 120 seconds. […] The surface was regenerated at each cycle with a single injection of 3M MgCl2 (10 uL/min, 60 seconds).

[8] = target: T3, human PDGFR-hIgG1-Fc chimeric fusion …; assay: SPR (Biacore T100), PDGFR-Fc captured by anti-hIgG1 Fc, 1:1 model
Description: (§3) IgG1 to human PDFGR were determined using surface plasmon resonance on a Biacore T100. Briefly, recombinant human PDGFR-hIgG1-Fc chimeric fusion protein (R&D, #385-PR-100/CF) was immobilized on a Series CM5 sensorchip coupled with anti-hIgG1 Fc monoclonal antibody (for the VH and ScFv assays) or anti-6His antibody (for the IgG assay). […] The data was analyzed using the Biacore T100 analysis software using a 1:1 model. Mass transport was checked and avoided to allow accurate measurements. All data was double referenced according to Biacore standard protocol.

human PDGFRβ [9] = target: T4, human PDGFRβ; assay: solution equilibrium binding: 35S-Met labelled in vitro translated protein, human PDGFRβ titrated (0 to 20 nM), capture on protein A beads, scintillation counts
Description: as §2, with “Human PDGFRβ was diluted in the same binding buffer to final concentrations from 100 nM to 0 nM.” left out

human PDGFRβ [10] = target: T4, human PDGFRβ; assay: ELISA: plate coated with 2 ug/mL human PDGFRβ or human IgG, crude scFv lysate, anti-flag-HRP, OD450
Description: A PDGFRβ binding ELISA assay was performed to assess the binding of the scFv to immobilized PDGFRβ and to determine the EC50. Specifically, 2 ug/mL of human PDGFRβ and human Fc or IgG in PBS was immobilized on Maxisorp plates at 4° C. overnight. The plate was then washed and blocked with superblock. In vitro translated crude scFv lysate was diluted 1:3 in 1×PBST. 100 ul of the diluted scFv lysate was loaded into each well of Maxisorp plates and incubated for 1 hour at room temperature. scFv that bound to immobilized PDGFRβ was detected by anti-flag antibody-HRP at 1:5000 dilution and a TMB substrate. The plate was read on a Molecular Device plate reader with end point assay at OD 450 nm.

[11] = target: T3, human PDGFR-hIgG1-Fc chimeric fusion …; assay: SPR (Biacore T100), PDGFR-Fc captured by anti-6His antibody, 1:1 model
Description: as §3

T4 sequence (P09619 33-530 limits assumed): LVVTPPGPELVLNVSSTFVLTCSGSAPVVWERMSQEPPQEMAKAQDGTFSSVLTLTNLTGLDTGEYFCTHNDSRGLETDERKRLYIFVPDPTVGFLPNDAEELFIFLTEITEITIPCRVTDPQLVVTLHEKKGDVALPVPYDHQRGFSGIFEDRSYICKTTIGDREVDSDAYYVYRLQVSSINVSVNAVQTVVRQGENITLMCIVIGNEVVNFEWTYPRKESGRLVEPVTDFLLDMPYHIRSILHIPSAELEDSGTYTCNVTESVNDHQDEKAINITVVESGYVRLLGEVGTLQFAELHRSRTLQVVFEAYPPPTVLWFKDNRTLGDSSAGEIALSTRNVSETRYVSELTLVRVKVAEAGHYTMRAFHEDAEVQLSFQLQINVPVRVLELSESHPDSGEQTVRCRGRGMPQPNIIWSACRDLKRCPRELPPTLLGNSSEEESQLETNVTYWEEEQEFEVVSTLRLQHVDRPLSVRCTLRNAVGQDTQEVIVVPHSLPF
T3 sequence (P09619 33-530 limits assumed, change not shown): as the sequence (P09619 33-530 limits assumed) above

| Binder | Kd [1] [pM] | koff [1] [s⁻¹] | kon [3] [M⁻¹ s⁻¹] | Kd [4] [pM] | koff [4] [s⁻¹] | kon [4] [M⁻¹ s⁻¹] | Kd (human PDGFRβ [9]) [pM] | other results |
| --- | --- | --- | --- | --- | --- | --- | --- | --- |
| B1 | 93 | 0.000927 | 9.94e+06 | 1080 | 0.00692 | 6.41e+06 | – | Kd [2]: 93.3 pM |
| B2 | – | – | – | – | – | – | – | Kd [5]: 14700 pM; Kd (human PDGFRβ [6]): 31900 pM; binding result (mouse PDGFRβ): no binding (tested: 100 nM) |
| B3 | 249 | 0.00186 | 7.19e+06 | 925 | 0.00289 | 3.13e+06 | 234 | Kd [3]: 243 pM; koff [3]: 0.00175 s⁻¹; IC50 [7]: < 5000 pM; Kd [8]: 227 pM; koff [8]: 0.00295 s⁻¹; kon [8]: 1.3e+07 M⁻¹ s⁻¹ |
| B4 | – | – | – | – | – | – | 18 | – |
| B5 | – | – | – | – | – | – | – | binding result (human PDGFRβ [10]): no binding |
| B6 | – | – | – | – | – | – | – | Kd [11]: 1590 pM; koff [11]: 0.00156 s⁻¹; kon [11]: 980000 M⁻¹ s⁻¹ |
